Measured values reported in the Immune Epitope Database (IEDB).

Assays:
Experiment in all cases: IEDB peptide-MHC binding, purified MHC/competitive/radioactivity; ≥ and ≤ were set here for values at or beyond the usual limits of such assays
Settings in all cases: source organism: Bordetella pertussis
[1] = target: HLA-B*44:03
[2] = target: HLA-B*53:01
[3] = target: HLA-B*57:01
[4] = target: HLA-B*07:02
[5] = target: HLA-B*35:01

| Sequence | IC50 [1] [µM] | IC50 [5] [µM] | other results |
| --- | --- | --- | --- |
| GEIALGDAT | 15.6 | – | – |
| HADWNNQSI | – | – | IC50 [2]: 12.4 µM |
| KAKSLTTEI | – | – | IC50 [3]: ≥ 70.4 µM |
| KEVDGIIQE | 39.1 | – | – |
| LPPRPVVAE | – | – | IC50 [4]: ≥ 77.5 µM |
| PFIIKLKDC | – | 11.6 | – |
| PLPPRPVVA | 55.9 | – | – |
| TPLPVSLTA | – | 0.209 | IC50 [2]: 11.8 µM |
| VARLVKLQG | – | – | IC50 [3]: ≥ 70.4 µM |
| VIGACTSPY | – | 62.6 | – |
| YALKSRIAL | – | 19.3 | – |
| YEVTPTRML | 19 | – | – |
| YSTGDLRAY | – | 31.4 | – |
